Results published in patent US20170056486A1.

Key:
HLA-A*24 (human) [1] = experiment: UV-exchange ELISA (anti-b2m); yield 20%-49%
HLA-A*24 (human) [2] = experiment: UV-exchange ELISA (anti-b2m); yield >=75%
HLA-A*24 (human) [3] = experiment: UV-exchange ELISA (anti-b2m); yield <20%

peptide exchange yield (HLA-A*24 (human) [1]) [%] | peptide exchange yield (HLA-A*24 (human) [2]) [%] | Binder | also measured
 | > 75 | VYSSQFETI | 
20 to 49 |  | VYPDTVALTF | 
20 to 49 |  | KFFDDLGDELLF | 
20 to 49 |  | VYNAVSTSF | 
20 to 49 |  | SYAPPSEDLF | 
 | > 75 | AFGQETNVPLNNF | 
 | > 75 | KQLDIANYELF | 
 | > 75 | KFDDVTMLF | 
 | > 75 | KYGTLDVTF | 
 | > 75 | KYTHFIQSF | 
 | > 75 | RYHPTTCTI | 
 | > 75 | VYPHFSTTNLI | 
 | > 75 | AYKSEVVYF | 
20 to 49 |  | YFIKSPPSQLF | 
 | > 75 | QFITSTNTF | 
20 to 49 |  | SYAPPSEDLFL | 
20 to 49 |  | AYSHLRYVF | 
20 to 49 |  | SYAELGTTI | 
 | > 75 | KYSDVKNLI | 
 | > 75 | TYIDTRTVF | 
20 to 49 |  | KYTSYILAF | 
 | > 75 | VFIDHPVHL | 
 | > 75 | NYGVLHVTF | 
 | > 75 | VFIAQGYTL | 
 | > 75 | GYIKLINFI | 
 | > 75 | QYLDVLHAL | 
 | > 75 | AFPTFSVQL | 
 | > 75 | VYMNVMTRL | 
 | > 75 | LYTETRLQF | 
20 to 49 |  | KYYRQTLLF | 

The remaining lines, values behind:

Binder | peptide exchange yield (HLA-A*24 (human) [1]) [%] | peptide exchange yield (HLA-A*24 (human) [2]) [%] | also measured
IFITKALQI | 20 to 49 |  | 
SYLNEAFSF |  | > 75 | 
KYLSVQLTL | 20 to 49 |  | 
FFHEGQYVF |  | > 75 | 
NYMPGQLTI |  | > 75 | 
DYVGFTLKI | 20 to 49 |  | 
FYPQIINTF |  | > 75 | 
VYNYAEQTL | 20 to 49 |  | 
VYTPVLEHL | 20 to 49 |  | 
SYQVIFQHF |  | > 75 | 
MYLKLVQLF | 20 to 49 |  | 
NYENKQYLF |  | > 75 | 
TYNPNLQDKL |  | > 75 | 
VYTGIDHHW |  | > 75 | 
VFLPRVTEL | 20 to 49 |  | 
RFLMKSYSF |  | > 75 | 
RYVFPLPYL |  | > 75 | 
KYGDFKLLEF |  | > 75 | 
KYPDIASPTF | 20 to 49 |  | 
SFLNIEKTEILF | 20 to 49 |  | 
SYGTILSHI |  | > 75 | 
SYVASFFLL | 20 to 49 |  | 
EYLQNLNHI |  | > 75 | 
LYQDHMQYI | 20 to 49 |  | 
TYKDYVDLF |  |  | peptide exchange yield (HLA-A*24 (human) [3]): < 20%
